Like-named read-outs stand apart in the source and are kept apart here.
Experiments:
[1] = format: physicochemical
Description: HPLC sample standards were prepared by dissolving KLG, MeKLG, ascorbic acid (ASA), and butyl-KLG to the appropriate concentration in water. Samples of these standards were placed in filled and sealed vials, stored at room temperature, and analyzed periodically. The HPLC was calibrated on the area response for standards that were injected onto the HPLC as soon as possible after the preparation of the standards.

[2] = solubility of butyl-KLG in water; format: physicochemical
Excerpt: The recrystallized butyl-KLG of this example had satisfactory proton and carbon NMR spectra and gave the predicted molecular weight by field desorption mass spectrometry.

[3] = enzyme screen for hydrolysis/methanolysis of butyl-KLG (HPLC of products and remaining substrate); format: biochemical; parameters: KLG formed / MeKLG formed / ASA formed / BuKLG (remaining substrate): unit: ppm
Description: (§1) Initial enzyme screens were carried out as follows. Enzyme (typically 10 mg), aqueous buffer (typically 860 microliters (ul) or 550 ul), aqueous 0.2M CaCl2 (10 ul), methanol (typically 90 ul or 400 ul), and an aqueous solution of substrate (typically 90 ul of butyl-KLG at a typical concentration of 110,000 ppm) were added to a 2 ml polypropylene centrifuge tube. The resulting solution was vortexed briefly and placed on a shaker bath at 300 rpm at 38° C. (typically for 18 hours or more). After incubation, samples were centrifuged at 14,000 G's (14,000 times gravity) for 20 minutes to remove enzyme, sampled (300 ul), and diluted to one milliliter with distilled water. If not analyzed by HPLC within the day, samples were frozen prior to analysis.
The data were reported in terms of parts per million of KLG, MeKLG, ascorbic acid (ASA) and butyl-KLG. […] Samples labeled as "no enzyme" were controls within a given run. The controls contained substrate but no enzyme and thus represented experimental and HPLC background data.

[4] = enzyme screen for methanolysis of KLG; format: biochemical; parameters: unit not given here; details: Table 14: 38° C., 19 Hours, 8.6% Methanol-Water, 0.2M MES Buffer
Description: as §1

[5] = Example 4: 38% methanol-water, MES, pH 5 to 5.8
[6] = Example 8: 8.6% methanol-water, MES, pH approximately 5.8 to 6.2
[7] = Example 9: 8.6% methanol-water, 0.2M MES
[8] = Table 3: 38° C., 16 Hours, 38% Methanol-Water, 0.1M MES Buffer
[9] = Table 4: 38° C., 47.5 Hours, 38% Methanol-Water, 0.1M MES Buffer
[10] = Table 7: 38° C., 19 Hours, 8.6% Methanol-Water, 0.1M MES
[11] = Table 8: 38° C., 21 Hours, 8.6% Methanol-Water, 0.2 M MES
[12] = Table 9: 38° C., 19 Hours, 8.6% Methanol-Water, 0.2M MES Buffer
[13] = Table 10: 38° C., 19 Hours, 38% Methanol-Water, 0.2M MES Buffer
[14] = Table 11: 38° C., ca. 19 Hours, 8.6% Methanol-Water, 0.2M Pyridine/Pyridinium Hydrochloride
[15] = Table 12: 38° C., ca. 19 Hours, 38% Methanol-Water, 0.2M pyridine buffer, pH 4.7 to 5.1
[16] = Table 13: 38° C., 20 Hours, 8.6% Methanol-Water, pH 2.3, 0.2M Phosphate Buffer

CCCCOC(=O)C(=O)[C@@H](O)[C@H](O)[C@@H](O)CO [butyl-KLG, butyl 2-keto-L-gulonate]
Amount Found ([1]; 50 ppm standard, 0 minutes): 50.6 ppm
Amount Found ([1]; 50 ppm standard, 400 minutes): 42.7 ppm
Amount Found ([1]; 50 ppm standard, 715 minutes): 38.2 ppm
Amount Found ([1]; 100 ppm standard, 0 minutes): 101 ppm
Amount Found ([1]; 100 ppm standard, 400 minutes): 100.1 ppm
Amount Found ([1]; 100 ppm standard, 715 minutes): 94.2 ppm
Amount Found ([1]; 500 ppm standard, 0 minutes): 506 ppm
Amount Found ([1]; 500 ppm standard, 400 minutes): 512 ppm
Amount Found ([1]; 500 ppm standard, 715 minutes): 499 ppm
solubility [2]: ≥ 500 mg/mL

B1: Pig Liver Esterase: pig liver esterase (a hydrolase) (protein)
chain: MWLLPLVLTSLASSATWAGQPASPPVVDTAQGRVLGKYVSLEGLAFTQPVAVFLGVPFAKPPLGSLRFAPPQPAEPWSFVKNTTSYPPMCCQDPVVEQMTSDLFTNFTGKERLTLEFSEDCLYLNIYTPADLTKRGRLPVMVWIHGGGLVLGGAPMYDGVVLAAHENFTVVVVAIQYRLGIWGFFSTGDEHSRGNWGHLDQVAALHWVQENIANFGGDPGSVTIFGESFTAGGESVSVLVLSPLAKNLFHRAISESGVALTVALVRKDMKAAAKQIAVLAGCKTTTSAVFTFVHCLRQKSEDELLDLTLKMKFLTLDFHGDQRESHPFLPTVVDGVLLPKMPEEILAEKDFTFNTVPYIVGINKQEFGWLLPTMMGFPLSEGKLDQKTATSLLWKSYPIANIPEELTPVATFTDKYLGGTDDPVKKKDLFLDLMGDVVFGVPSVTVARQHRDAGAPTYMYEFQYRPSFSSDKFTKPKTVIGDHGDEIFSVFGFPLLKGDAPEEEVSLSKTVMKFWANFARSGNPNGEGLPHWPFTMYDQEEGYLQIGVNTQAAKRLKGEEVAFWNDLLSKEAAKKPPKIKHAEL
levels of activity / conversion of butyl-KLG ([3]; Example 3: 38% methanol-water, MES, pH 4.8 to 5.8): particularly high levels of activity
levels of activity / conversion of butyl-KLG [3, 5]: particularly high levels of activity
levels of activity / conversion of butyl-KLG ([3]; Example 7: 8.6% methanol-water, MES, pH approximately 5 to 6): particularly high levels of activity
levels of activity / conversion of butyl-KLG [3, 6]: particularly high levels of activity
conversions to ascorbic acid [3, 7]: significant conversions to ascorbic acid
selectivity (transesterification) [3, 7]: selectivity toward transesterification
levels of activity / conversion of butyl-KLG ([3]; Example 9: 8.6% methanol-water, 0.2M MES, pH approximately 5.6 to 6): particularly high levels of activity
levels of activity / conversion of butyl-KLG ([3]; Example 10: 38% methanol-water, 0.2M MES, pH approximately 5.6 to 6.2): Decreased, although still appreciable, activity
levels of activity / conversion of butyl-KLG ([3]; Example 11: 8.6% methanol-water, pyridine buffer, pH approximately 4.9 to 5.3): particularly high levels of activity
ASA formed [3, 8]: 294 ppm
BuKLG (remaining substrate) [3, 8]: 5711 ppm
KLG formed [3, 8]: 446 ppm
MeKLG formed [3, 8]: 4377 ppm
ASA formed [3, 9]: 246 ppm
BuKLG (remaining substrate) [3, 9]: 1368 ppm
KLG formed [3, 9]: 705 ppm
MeKLG formed [3, 9]: 2720 ppm
ASA formed [3, 10]: 423
BuKLG (remaining substrate) [3, 10]: 10
KLG formed [3, 10]: 2726
MeKLG formed [3, 10]: 3731
ASA formed [3, 11]: 717 ppm
BuKLG (remaining substrate) [3, 11]: 83 ppm
KLG formed [3, 11]: 2373 ppm
MeKLG formed [3, 11]: 4167 ppm
ASA formed [3, 12]: 650 ppm
BuKLG (remaining substrate) [3, 12]: 0 ppm
KLG formed [3, 12]: 1947 ppm
MeKLG formed [3, 12]: 4258 ppm
ASA formed [3, 13]: 173 ppm
BuKLG (remaining substrate) [3, 13]: 7030 ppm
KLG formed [3, 13]: 203 ppm
MeKLG formed [3, 13]: 1654 ppm
ASA formed [3, 14]: 37 ppm
BuKLG (remaining substrate) [3, 14]: 390 ppm
KLG formed [3, 14]: 1613 ppm
MeKLG formed [3, 14]: 5787 ppm
ASA formed [3, 15]: 0
BuKLG (remaining substrate) [3, 15]: 11750
KLG formed [3, 15]: 47
MeKLG formed [3, 15]: 197
ASA formed [3, 16]: 0
BuKLG (remaining substrate) [3, 16]: 9500
KLG formed [3, 16]: 417
MeKLG formed [3, 16]: 93
ASA formed [4]: 0
BuKLG [4]: 0
KLG (remaining substrate) [4]: 4393
MeKLG formed [4]: 0

B2: ChiroCLEC-BL (Dry): crystalline crosslinked enzyme, a crystalline form of Subtilisin (a protease) (Altus Biologics) (protein, UniProt P00780 106-379, looked up)
Subtilisin Carlsberg: AQTVPYGIPLIKADKVQAQGFKGANVKVAVLDTGIQASHPDLNVVGGASFVAGEAYNTDGNGHGTHVAGTVAALDNTTGVLGVAPSVSLYAVKVLNSSGSGSYSGIVSGIEWATTNGMDVINMSLGGASGSTAMKQAVDNAYAKGVVVVAAAGNSGSSGNTNTIGYPAKYDSVIAVGAVDSNSNRASFSSVGAELEVMAPGAGVYSTYPTNTYATLNGTSMASPHVAGAAALILSKHPNLSASQVRNRLSSTATYLGSSFYYGKGLINVEAAAQ
modifications: crystalline cross-linked enzyme
levels of activity / conversion of butyl-KLG [3, 5]: particularly high levels of activity
levels of activity / conversion of butyl-KLG [3, 6]: particularly high levels of activity
ASA formed [3, 8]: 3 ppm
BuKLG (remaining substrate) [3, 8]: 5123 ppm
KLG formed [3, 8]: 194 ppm
MeKLG formed [3, 8]: 642 ppm
ASA formed [3, 9]: 54 ppm
BuKLG (remaining substrate) [3, 9]: 634 ppm
KLG formed [3, 9]: 3744 ppm
MeKLG formed [3, 9]: 1724 ppm
ASA formed [3, 10]: 135
BuKLG (remaining substrate) [3, 10]: 4051
KLG formed [3, 10]: 2860
MeKLG formed [3, 10]: 1233
ASA formed [3, 11]: 6 ppm
BuKLG (remaining substrate) [3, 11]: 1376 ppm
KLG formed [3, 11]: 4293 ppm
MeKLG formed [3, 11]: 1282 ppm
ASA formed [3, 12]: 215 ppm
BuKLG (remaining substrate) [3, 12]: 3045 ppm
KLG formed [3, 12]: 3485 ppm
MeKLG formed [3, 12]: 1235 ppm
ASA formed [3, 13]: 102 ppm
BuKLG (remaining substrate) [3, 13]: 5572 ppm
KLG formed [3, 13]: 1261 ppm
MeKLG formed [3, 13]: 1693 ppm
ASA formed [3, 14]: 67 ppm
BuKLG (remaining substrate) [3, 14]: 5603 ppm
KLG formed [3, 14]: 987 ppm
MeKLG formed [3, 14]: 1360 ppm
ASA formed [3, 15]: 7
BuKLG (remaining substrate) [3, 15]: 10950
KLG formed [3, 15]: 97
MeKLG formed [3, 15]: 447
ASA formed [3, 16]: 0
BuKLG (remaining substrate) [3, 16]: 10580
KLG formed [3, 16]: 387
MeKLG formed [3, 16]: 0
ASA formed [4]: 0
BuKLG [4]: 0
KLG (remaining substrate) [4]: 3270
MeKLG formed [4]: 0

Source: patent US5817490A, “Enzymatic process for the manufacture of ascorbic acid 2-keto-L-gulonic acid and esters of 2-keto-L-gulonic acid” (Eastman Chemical Company, priority 1997, dated 1998)
